Among the data in paper PMC6864843 (2019) are absorbance, Kd and koff values, retold here.

Assay [1] has as its target Recombinant AAV2 particles (Adeno-Associated Virus serotype 2 capsid) (Adeno-associated virus 2). Briefly: ELISA; sandwich 'VIRELISA': 10 μg AAVR-His coated per well, AAV2 sample (1.0 × 10^8 v.g. in Table 1) 1 h at RT, blocked with BSA, AAVR-SBP-His probe 1 h in PBST, HRP-streptavidin, ABTS, read at 450 nm; probe concentration, SAV-HRP dilution and ABTS time varied in Table 1.

The target in assay [2] is Recombinant AAV1 particles (Adeno-Associated Virus serotype 1 capsid) (Adeno-associated virus 1) (UniProt Q9WBP8). Put plainly: SPR; BIAcore T200; AAV1 particles immobilised on a CM5 chip by amide coupling (in sodium acetate pH 4.5); AAVR flowed at different concentrations, 30 μL/min, 25 °C, 100 mM NaCl in 10 mM HEPES pH 7.4.
Assay [3] deals with T1, Recombinant AAV1 particles (Adeno-Associated Virus serotype 1 capsid) (Adeno-associated virus 1, UniProt Q9WBP8 1-736).
T1 chain 1: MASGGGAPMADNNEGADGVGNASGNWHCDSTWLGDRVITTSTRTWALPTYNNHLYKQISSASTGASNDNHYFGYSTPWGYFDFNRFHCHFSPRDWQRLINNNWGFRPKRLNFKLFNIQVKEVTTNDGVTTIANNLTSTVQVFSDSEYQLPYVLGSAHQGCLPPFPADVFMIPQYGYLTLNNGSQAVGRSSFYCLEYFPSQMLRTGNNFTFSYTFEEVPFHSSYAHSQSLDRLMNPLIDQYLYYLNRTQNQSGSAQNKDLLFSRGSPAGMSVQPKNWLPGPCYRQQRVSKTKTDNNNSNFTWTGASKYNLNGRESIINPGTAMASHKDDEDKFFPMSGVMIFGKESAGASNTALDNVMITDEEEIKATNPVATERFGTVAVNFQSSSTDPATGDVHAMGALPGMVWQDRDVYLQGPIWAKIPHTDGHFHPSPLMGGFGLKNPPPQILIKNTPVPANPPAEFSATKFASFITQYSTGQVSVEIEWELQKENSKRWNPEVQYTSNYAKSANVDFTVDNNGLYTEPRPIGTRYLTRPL
T1 chain 2: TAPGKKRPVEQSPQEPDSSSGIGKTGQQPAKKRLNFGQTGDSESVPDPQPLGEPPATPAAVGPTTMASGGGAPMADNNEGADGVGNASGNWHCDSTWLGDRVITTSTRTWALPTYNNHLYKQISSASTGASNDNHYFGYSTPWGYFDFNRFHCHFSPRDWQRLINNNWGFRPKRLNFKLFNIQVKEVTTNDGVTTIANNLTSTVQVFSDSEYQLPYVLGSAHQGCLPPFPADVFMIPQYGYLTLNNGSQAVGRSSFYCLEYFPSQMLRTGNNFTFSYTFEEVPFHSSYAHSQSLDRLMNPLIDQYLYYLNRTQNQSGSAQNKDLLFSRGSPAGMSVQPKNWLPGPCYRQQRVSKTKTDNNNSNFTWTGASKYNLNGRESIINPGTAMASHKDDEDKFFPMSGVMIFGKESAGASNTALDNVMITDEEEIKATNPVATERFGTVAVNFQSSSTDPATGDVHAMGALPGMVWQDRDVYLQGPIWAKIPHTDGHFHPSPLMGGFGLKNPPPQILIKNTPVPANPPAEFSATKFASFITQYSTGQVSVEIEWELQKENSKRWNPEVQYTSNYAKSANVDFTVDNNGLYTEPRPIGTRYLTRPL
T1 chain 3: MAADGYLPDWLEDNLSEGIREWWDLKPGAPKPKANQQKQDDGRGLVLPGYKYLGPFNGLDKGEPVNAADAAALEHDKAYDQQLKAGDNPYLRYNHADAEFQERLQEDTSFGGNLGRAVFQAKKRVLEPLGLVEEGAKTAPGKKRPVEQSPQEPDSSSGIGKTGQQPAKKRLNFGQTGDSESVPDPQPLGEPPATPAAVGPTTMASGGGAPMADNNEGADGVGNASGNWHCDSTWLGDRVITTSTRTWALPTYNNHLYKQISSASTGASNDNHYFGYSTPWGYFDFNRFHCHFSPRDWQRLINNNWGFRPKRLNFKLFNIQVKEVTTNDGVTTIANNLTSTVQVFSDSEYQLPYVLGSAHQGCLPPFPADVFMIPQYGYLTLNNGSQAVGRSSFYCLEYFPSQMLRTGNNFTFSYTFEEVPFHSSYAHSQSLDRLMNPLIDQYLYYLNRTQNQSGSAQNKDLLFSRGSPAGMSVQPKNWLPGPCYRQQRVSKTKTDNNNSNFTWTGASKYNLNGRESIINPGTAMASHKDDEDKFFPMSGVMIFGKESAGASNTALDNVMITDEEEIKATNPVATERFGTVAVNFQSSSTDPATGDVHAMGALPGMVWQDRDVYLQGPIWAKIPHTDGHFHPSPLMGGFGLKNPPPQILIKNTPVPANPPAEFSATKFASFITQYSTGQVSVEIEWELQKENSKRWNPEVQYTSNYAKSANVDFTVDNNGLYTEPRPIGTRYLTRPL
Briefly: SPR.

Chain of Recombinant AAV2 particles (Adeno-Associated Virus serotype 2 capsid) (Adeno-associated virus 2) (O56652 whole entry, chain 1 of 3): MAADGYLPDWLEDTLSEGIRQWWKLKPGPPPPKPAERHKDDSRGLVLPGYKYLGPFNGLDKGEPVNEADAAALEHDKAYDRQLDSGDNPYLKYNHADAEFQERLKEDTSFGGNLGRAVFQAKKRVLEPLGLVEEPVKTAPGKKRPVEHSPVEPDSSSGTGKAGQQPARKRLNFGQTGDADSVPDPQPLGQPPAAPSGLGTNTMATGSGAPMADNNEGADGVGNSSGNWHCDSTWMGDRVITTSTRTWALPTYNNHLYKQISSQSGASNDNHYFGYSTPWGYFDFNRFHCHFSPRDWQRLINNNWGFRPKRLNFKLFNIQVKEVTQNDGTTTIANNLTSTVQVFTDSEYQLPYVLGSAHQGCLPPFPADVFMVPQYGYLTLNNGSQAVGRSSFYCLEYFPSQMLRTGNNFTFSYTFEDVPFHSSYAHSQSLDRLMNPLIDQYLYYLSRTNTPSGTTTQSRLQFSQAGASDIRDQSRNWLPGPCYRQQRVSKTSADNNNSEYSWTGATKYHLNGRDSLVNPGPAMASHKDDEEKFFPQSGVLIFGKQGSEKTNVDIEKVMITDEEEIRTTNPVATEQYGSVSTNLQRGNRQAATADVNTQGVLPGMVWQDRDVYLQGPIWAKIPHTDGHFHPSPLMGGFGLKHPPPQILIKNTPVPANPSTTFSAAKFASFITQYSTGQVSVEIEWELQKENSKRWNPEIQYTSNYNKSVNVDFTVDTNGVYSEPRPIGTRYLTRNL
Chain of Recombinant AAV2 particles (Adeno-Associated Virus serotype 2 capsid) (Adeno-associated virus 2) (P03135 139-735, tags left off, chain 2 of 3, further chain): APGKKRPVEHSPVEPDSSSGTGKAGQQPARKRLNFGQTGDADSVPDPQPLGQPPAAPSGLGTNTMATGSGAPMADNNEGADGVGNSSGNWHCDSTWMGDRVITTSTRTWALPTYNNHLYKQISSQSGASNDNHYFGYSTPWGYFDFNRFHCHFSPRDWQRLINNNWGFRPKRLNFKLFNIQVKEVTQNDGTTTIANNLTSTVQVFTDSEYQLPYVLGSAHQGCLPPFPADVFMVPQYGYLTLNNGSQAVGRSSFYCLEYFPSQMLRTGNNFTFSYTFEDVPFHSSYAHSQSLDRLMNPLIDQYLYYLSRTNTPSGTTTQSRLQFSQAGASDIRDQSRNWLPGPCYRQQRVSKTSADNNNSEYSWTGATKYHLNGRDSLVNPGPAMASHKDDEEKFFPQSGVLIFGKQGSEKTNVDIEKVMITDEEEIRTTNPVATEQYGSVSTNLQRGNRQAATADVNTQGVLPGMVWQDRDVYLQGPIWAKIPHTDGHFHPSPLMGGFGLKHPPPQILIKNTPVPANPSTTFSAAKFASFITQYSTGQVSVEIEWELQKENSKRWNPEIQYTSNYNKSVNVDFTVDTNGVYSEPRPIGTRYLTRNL
Chain of Recombinant AAV2 particles (Adeno-Associated Virus serotype 2 capsid) (Adeno-associated virus 2) (P03135 203-735 limits assumed, chain 3 of 3, further chain): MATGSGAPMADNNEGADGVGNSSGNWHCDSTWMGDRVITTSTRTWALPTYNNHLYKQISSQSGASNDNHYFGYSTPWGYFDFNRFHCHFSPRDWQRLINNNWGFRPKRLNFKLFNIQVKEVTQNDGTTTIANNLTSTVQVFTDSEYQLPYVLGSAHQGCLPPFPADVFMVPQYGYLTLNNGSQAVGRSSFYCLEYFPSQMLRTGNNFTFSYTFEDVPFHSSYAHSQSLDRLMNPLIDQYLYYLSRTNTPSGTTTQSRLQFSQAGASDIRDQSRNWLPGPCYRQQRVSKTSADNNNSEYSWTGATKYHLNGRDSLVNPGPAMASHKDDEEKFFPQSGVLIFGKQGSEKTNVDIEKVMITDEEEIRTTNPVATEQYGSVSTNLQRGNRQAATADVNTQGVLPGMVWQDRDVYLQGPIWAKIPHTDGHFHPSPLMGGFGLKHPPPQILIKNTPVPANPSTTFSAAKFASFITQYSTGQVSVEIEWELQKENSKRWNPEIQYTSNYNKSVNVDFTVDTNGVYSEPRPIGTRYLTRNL

In the case of “AAVR-SBP-His (AAVR PKD domains 1–5 with C-terminal streptavidin binding peptide and 6× His-tag in tandem) (domain or fragment)”, in assay [1], the absorbance at 450 nm, AAVR-SBP-His 50 μg/mL (absorbance (450 nm)) stood at 0.662; the absorbance at 450 nm, AAVR-SBP-His 100 μg/mL (absorbance (450 nm)) is 0.861; the absorbance at 450 nm, ABTS incubating time 10 min (absorbance (450 nm)) was determined as 0.32; the absorbance at 450 nm, ABTS incubating time 15 min (absorbance (450 nm)) came out at 0.663. In addition, in assay [1], the absorbance at 450 nm, ABTS incubating time 20 min (absorbance (450 nm)) is 0.819; the absorbance at 450 nm, ABTS incubating time 30 min (absorbance (450 nm)) was 1.33; the absorbance at 450 nm, SAV-HRP dilution 1/1000 (absorbance (450 nm)) amounted to 0.872; the absorbance at 450 nm, SAV-HRP dilution 1/2000 (absorbance (450 nm)) worked out at 0.798. Also, the absorbance at 450 nm, SAV-HRP dilution 1/5000 (absorbance (450 nm)) in assay [1] came to 0.662.
Take “Soluble recombinant AAVR (analyte of the BIAcore assay) (domain or fragment)”: the Kd in assay [2] was determined as 255 nM.

B1: Soluble recombinant AAVR (analyte of the BIAcore assay) (domain or fragment)
chain: SAGESVQITLPKNEVQLNAYVLQEPPKGETYTYDWQLITHPRDYSGEMEGKHSQILKLSKLTPGLYEFKVIVEGQNAHGEGYVNVTVKPEPRKNRPPIAIVSPQFQEISLPTTSTVIDGSQSTDDDKIVQYHWEELKGPLREEKISEDTAILKLSKLVPGNYTFSLTVVDSDGATNSTTANLTVNKAVDYPPVANAGPNQVITLPQNSITLFGNQSTDDHGITSYEWSLSPSSKGKVVEMQGVRTPTLQLSAMQEGDYTYQLTVTDTIGQQATAQVTVIVQPENNKPPQADAGPDKELTLPVDSTTLDGSKSSDDQKIISYLWEKTQGPDGVQLENANSSVATVTGLQVGTYVFTLTVKDERNLQSQSSVNVIVKEEINKPPIAKITGNVVITLPTSTAELDGSKSSDDKGIVSYLWTRDEGSPAAGEVLNHSDHHPILFLSNLVEGTYTFHLKVTDAKGESDTDRTTVEVKPD
Regarding B1, in assay [3], the koff is 0.00184 s⁻¹.
